{"source": "paper PMC3662786", "about": "“miR172b Controls the Transition to Autotrophic Development Inhibited by ABA in Arabidopsis”", "conditions_in_all_cases": "protein: recombinant; tags: MBP fusion; label: 3' biotin; blunt", "key": {"[1]": {"molecular_target": "T1, MBP-SNZ (Arabidopsis thaliana, UniProt Q6PV67 1-325)", "T1 sequence (Q6PV67 whole entry)": "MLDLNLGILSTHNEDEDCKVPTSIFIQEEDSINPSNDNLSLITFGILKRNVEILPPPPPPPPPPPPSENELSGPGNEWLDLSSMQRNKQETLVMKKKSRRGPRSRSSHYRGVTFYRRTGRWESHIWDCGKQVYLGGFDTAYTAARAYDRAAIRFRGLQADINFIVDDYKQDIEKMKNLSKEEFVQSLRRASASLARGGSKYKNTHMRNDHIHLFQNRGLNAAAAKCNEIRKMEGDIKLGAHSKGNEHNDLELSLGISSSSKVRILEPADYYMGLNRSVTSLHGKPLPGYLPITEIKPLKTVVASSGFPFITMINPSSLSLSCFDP", "assay": "EMSA; poly(dI-dC), 5 mM MgCl2; unlabeled RAV1-A probe reduced binding; LightShift EMSA binding buffer, 50 ng poly(dI-dC), 2.5% glycerol, 0.06% NP-40, 5 mM MgCl2, 19 mg BSA (so in the source), 28 ug protein, 5 pmol probe, 30 min room temperature; pH and salt not given"}, "[2]": {"molecular_target": "T1, MBP-SNZ", "assay": "EMSA; poly(dI-dC), 5 mM MgCl2; LightShift EMSA binding buffer, 50 ng poly(dI-dC), 2.5% glycerol, 0.06% NP-40, 5 mM MgCl2, 19 mg BSA (so in the source), 28 ug protein, 5 pmol probe, 30 min room temperature; pH and salt not given"}, "[3]": {"molecular_target": "T1, MBP-SNZ", "assay": "EMSA; poly(dI-dC), 5 mM MgCl2; unlabeled probe (50x, 250x) inhibited binding; LightShift EMSA binding buffer, 50 ng poly(dI-dC), 2.5% glycerol, 0.06% NP-40, 5 mM MgCl2, 19 mg BSA (so in the source), 28 ug protein, 5 pmol probe, 30 min room temperature; pH and salt not given"}}}
{"binder": "wRAV1-A probe (dsDNA) DNA 1: CACCTGCAACACAACACAACACAACACAACACAACACACCTG DNA 2: CAGGTGTGTTGTGTTGTGTTGTGTTGTGTTGTGTTGCAGGTG", "values": [{"measurement": "binding result", "setting": "[1]", "result": "binds"}]}
{"binder": "mRAV1-A probe (dsDNA) DNA 1: CACCTGCGGTACGGTACGGTACGGTACGGTACGGTACACCTG DNA 2: CAGGTGTACCGTACCGTACCGTACCGTACCGTACCGCAGGTG", "values": [{"measurement": "binding result", "setting": "[2]", "result": "no binding"}]}
{"binder": "ABI5 probe (dsDNA) DNA 1: TTAACAACTGCATCATATACACAACAATAAC DNA 2: GTTATTGTTGTGTATATGATGCAGTTGTTAA", "values": [{"measurement": "binding result", "setting": "[3]", "result": "binds"}]}
